In the domain aggregation screens of Martell et al. (2025):

Assay: soluble fraction after stress (log2 fold change); higher = more stays soluble; pooled small domains, quantitative proteomics
Conditions: stress: 50 degC
In short: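 Each library was heated to 50°C as a stress step. The libraries, made up of small protein domains, were pooled and analysed at high throughput by quantitative proteomics. The reported value is the base-two logarithm of the fold change in each protein's soluble amount after stress, taken as a measure of aggregation propensity. The higher the value, the more protein stays in solution.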

Sequence	soluble fraction (log2)
HMDDDAELLLKKLSAAGGELPFHDRSEPAEIEAAFGLSKSAFKRALGKLLKAGKVVKTQQGIQLK	0.0395
HMLTALTDREEEILVLLAHNLSNKEIAKRLNLSVNTVRNHTSHIYEKLNVTSRRKAITLAQSLHLLPP	-1.35
HMILNNAKINTELNSLAEFTQRSLDSNTSEIGFYDYKKISYIASFATMKTTNWNVIIRAPINEFMGTVN	0.101
HMVDETDVPTFTDMTLEEAQNEAKQRNLKLEITESPSDKEKDTILEQDPEPGKTVASGSTVKLTVSNGEE	-0.14
HMSVPSVAAVREQTGLSQVKFASLLGVSVRTLQEWEQGRRAPSGAARTLLMVAAKNPQALLEV	-0.584
HMKIPIIYQPLKNAKRIKIYIPYELKELRTIFKKINTTFWHPNQKLWSIIYTQENVALIKNLFGKNYKIVN	-0.547
HMLVSPLDEIPGIGRNRKKTLLNHFGSAKTIEGASLEDLKKVDGISELIAKKIYNYFHLNKNF	-0.411
HMHTGLAELTDRERDVLRLIATGMTNAAIGSALAYSPSTIRADTVSIYRKLEVRGRAEAAAVAVAAGLTQP	-1.26
HMTNPPITTEARNLVVEQLKELNALHPEKARELADSYKKEFNVPKVIGHITEARHGEFLALAISKIDES	-0.144
HMDTAGSVAIVSKSVIENGFGEIKYKGTYFKAQSDVYIPKDQMVKVIGKGDEQGSFLIVEKLN	-0.0425
HMYGSLGEYELAAVQWIYGKGKITTRELSSLIGKGLTLSSKTLRGLAAKGILEWHGNSKNDPSQFYSLP	-2.39
HMEPLKLGDATGDGKINLQDVLEMQKHMAGILVLKGKFFTAADVNGNGKIELVDVLSVQKYLAGVTAEV	0.00939
HMKTLDATQRLKLNGEGIIVFNFGKYVDQPVVEIFKKERGYFAWMMSKDFSQQVKNIITKIHNEEILGK	-2.76
HMQPIEIQDRITKAFERSAALEAKNINVEVDGHTVKLTGTVHSLTEKEEARKAAFFAPGVTKVENHLIVDY	0.0426
HMNRGITVIVNNEEIKMKEKAQYVVVDIFDYIDFDLTVPKGSINITLNGENTPYTASIKDGDVIEVFW	-0.266
HMTGDIGAEAAKAAALAHAGVTESQTAKMKVDRDWDDGRLEYDVEFDVGRTEYEYTIDGVTGAVLEYEQDI	0.0136
HMEHIDVSGRAFDVSVSRLKRARRLTMRIDTHKQLVKISAPLHVESSTIRAFLARNQNWLEQQVEKR	-0.881
HMVNDDTIAATEAEILALLADKHRHHITELNSIRRPYEQIDAALSSLINEEKIFQEDGMLFV	0.144
HMGSLVVVPNLVGQNYDEVKLSTKYSDFEIVQKNTEYSEAPAGQIIKQDPEAGTKVKKHSTINVTVSK	-0.354

Sequence	soluble fraction (log2)
HMLAPLAEMRGDTLDRLEKAVLELFSSRDFHEVSLQDVARRANVSLQTIYKYFGSKEALVYTMLDTLLGR	-0.661
HMAGTPAVVKWFNPTKGFGFVTPREAGSDALLHASVLAKQGKRWLQEGTVVEVVLEEGPKGLVVSEVLTIE	-0.457
HMFHGEGVQANNIQAYIVLKMAAVNGAEDALDTADEVSEKMSREDLETATQVLGQIFRKYLMELQSA	-1.2
HMATPYISMAGIGKSFGPVHALKSVNLTVYPGEIHALLGENGAGKSTLMKVLSGIHEPTKGTITINNIN	0.384
HMERYFVLVIYDIVDNKKRLKLSKYLLGYGIRVQKSAFEMMITKEKYNKLIKELPTYIEEGEDSIRLY	0.132
HMTENIPPVKIEEMRQKWQDIVLLHGVTSGRKIKSGQATYIWLYRNDQNWLLTFNSRHLSQPQV	0.145
HMEAEVIKTASDMADRNGLHNVSLKAIAENLGIRTPSLYNHIGSLDELLREIAHSGMRTMNE	0.02
HMGYKDIDKLSGVDLAIYRFIVEHDEQIPYMRVRELARGAHVSNSSVMRFIRKIGYDSFPEFKVSLRS	0.0102
HMISKRFQVDEENSNNRVDIFLANNLDSISRGIVQQLILDGKVLVNGETVKRNHLLKTNDEVDISFEI	0.298
HMSVTYRLLITSSPGQAEVFLDGKRVGITPFSARLAAGWYQVRVSKEGYNLWEQHVQLREDQRLTATLT	-0.471
HMFINITAITGNNYNTPDAARNALPNTYNKKIGLVFTYRDLTNRYRVYLYNSETSNYIPLDSYM	-3.39
HMGLPLETVVTHATKLEIVRDGRVSGSIGLSAGVKVDVIALEGDNLQVRYRSLSGRVPVAHTGLAALA	0.105
HMVSDSAELSAFVADVIKENAQAVADYKGGKTNVFGWLMGQIIKKSGGKATPAAAAALLKAELEK	0.0521
HMGSQELIQLGERIRQKRKDSHLTQETFAEKAGISVNTVSRIEGGQAAMSIEIFAKLVEILDADANELLG	-1.14
HMFTEPQKLVKRILNMLGHRYDDASIQARSDFQASNNYHKVQVKKKRESMEEYTAWLEEMYDAYRIN	-1.43
HMDIRMLLSDREEEIMILLSKGLSISEAANRMQIGQASAATYLNRARRKLKAETVRQAVAIWTGD	-1.75
HMHDEKHHQLANEIARKWAALRGNRDFAAADELKNLAAEAGVELQATKQAVGQGALAKLKENFDPVKLEAL	0.188
HMQETKDEGAQVLLNKINALVAAVQGQIITPEEAAIKLATDGDLDLDVDARVAAIEEFNKKLSEAQNN	0.0497
HMFISVDGLIHMGRTHLVILGGVEFARGDMIPETGEVVKSIGADSVVLELPDTGMRRTLNFV	-2.92
